Literature values as cited in patent publication US9394339B2, “Stabilized formulations of peptides and proteins protecting against non-enzymatic degradation” (Lyotropic Therapeutics, Inc., priority 2007, dated 2016).

conditions: aqueous solution, pH 7.4, 37° C., Tris-HCl buffer

Molecule	T1/10 (time to 10% degradation by deamidation) [days]
Neutrophil (gelatinase) (1DFV): human protein (protein, UniProt P80188 21-198, looked up) Neutrophil …: QDSTSDLIPAPPLSKVPLQQNFQDNQFQGKWYVVGLAGNAILREDKDPQKMYATIYELKEDKSYNVTSVLFRKKKCDYWIRTFVPGCQPGEFTLGNIKSYPGLTSYLVRVVSTNYNQHAMVFFKKVSQNREYFKITLYGRTKELTSELKENFIRFSKSLGLPENHIVFPVPIDQCIDG	44
Lithostathine (1LIT): human protein (protein, UniProt P05451 23-166, looked up) Lithostathine-1-alpha: QEAQTELPQARISCPEGTNAYRSYCYYFNEDRETWVDADLYCQNMNSGNLVSVLTQAEGAFVASLIKESGTDDFNVWIGLHDPKKNRRWHWSSGSLVSYKSWGIGAPSSVNPGYCVSLTSSTGFQKWKDVPCEDKFSFVCKFKN	74
Electron transfer flavoprotein (1EFV): human protein (protein, UniProt P13804 20-333; P38117 2-255, looked up) Electron transfer … 1: QSTLVIAEHANDSLAPITLNTITAATRLGGEVSCLVAGTKCDKVAQDLCKVAGIAKVLVAQHDVYKGLLPEELTPLILATQKQFNYTHICAGASAFGKNLLPRVAAKLEVAPISDIIAIKSPDTFVRTIYAGNALCTVKCDEKVKVFSVRGTSFDAAATSGGSASSEKASSTSPVEISEWLDQKLTKSDRPELTGAKVVVSGGRGLKSGENFKLLYDLADQLHAAVGASRAAVDAGFVPNDMQVGQTGKIVAPELYIAVGISGAIQHLAGMKDSKTIVAINKDPEAPIFQVADYGIVADLFKVVPEMTEILKKK Electron transfer … 2: AELRVLVAVKRVIDYAVKIRVKPDRTGVVTDGVKHSMNPFCEIAVEEAVRLKEKKLVKEVIAVSCGPAQCQETIRTALAMGADRGIHVEVPPAEAERLGPLQVARVLAKLAEKEKVDLVLLGKQAIDDDCNQTGQMTAGFLDWPQGTFASQVTLEGDKLKVEREIDGGLETLRLKLPAVVTADLRLNEPRYATLPNIMKAKKKKIEVIKPGDLGVDLTSKLSVISVEDPPQRTAGVKVETTEDLVAKLKEIGRI	29
-Lactalbumin (1B9O): human protein (protein, UniProt P00709 20-142, looked up) Alpha-lactalbumin: KQFTKCELSQLLKDIDGYGGIALPELICTMFHTSGYDTQAIVENNESTEYGLFQISNKLWCKSSQVPQSRNICDISCDKFLDDDITDDIMCAKKILDIKGIDYWLAHKALCTEKLEQWLCEKL	20
Thioltransferase (1JHB): human protein (protein, UniProt P35754 2-106, looked up) Glutaredoxin-1: AQEFVNCKIQPGKVVVFIKPTCPYCRRAQEILSQLPIKQGLLEFVDITATNHTNEIQDYLQQLTGARTVPRVFIGKDCIGGCSDLVSLQQSGELLTRLKQIGALQ	71
Thymidylate synthase (1HW3): human protein (protein, UniProt P04818 2-313, looked up) Thymidylate synthase: PVAGSELPRRPLPPAAQERDAEPRPPHGELQYLGQIQHILRCGVRKDDRTGTGTLSVFGMQARYSLRDEFPLLTTKRVFWKGVLEELLWFIKGSTNAKELSSKGVKIWDANGSRDFLDSLGFSTREEGDLGPVYGFQWRHFGAEYRDMESDYSGQGVDQLQRVIDTIKTNPDDRRIIMCAWNPRDLPLMALPPCHALCQFYVVNSELSCQLYQRSGDMGLGVPFNIASYALLTYMIAHITGLKPGDFIHTLGDAHIYLNHIEPLKIQLQREPRPFPKLRILRKVEKIDDFKAEDFQIEGYNPHPTIKMEMAV	0.41
Uroporphyrinogen decarboxylase (1URO): human protein (protein, UniProt P06132 1-367, looked up) Uroporphyrinogen decarboxylase: MEANGLGPQGFPELKNDTFLRAAWGEETDYTPVWCMRQAGRYLPEFRETRAAQDFFSTCRSPEACCELTLQPLRRFPLDAAIIFSDILVVPQALGMEVTMVPGKGPSFPEPLREEQDLERLRDPEVVASELGYVFQAITLTRQRLAGRVPLIGFAGAPWTLMTYMVEGGGSSTMAQAKRWLYQRPQASHQLLRILTDALVPYLVGQVVAGAQALQLFESHAGHLGPQLFNKFALPYIRDVAKQVKARLREAGLAPVPMIIFAKDGHFALEELAQAGYEVVGLDWTVAPKKARECVGKTVTLQGNLDPCALYASEEEIGQLVKQMLDDFGPHRYIANLGHGLYPDMDPEHVGAFVDAVHKHSRLLRQN	0.15
Phosphatidylethanolamine binding protein (1BD9): human protein (protein, UniProt P30086 2-187, looked up) Phosphatidylethanolamine-bindi …: PVDLSKWSGPLSLQEVDEQPQHPLHVTYAGAAVDELGKVLTPTQVKNRPTSISWDGLDSGKLYTLVLTDPDAPSRKDPKYREWHHFLVVNMKGNDISSGTVLSDYVGSGPPKGTGLHRYVWLVYEQDRPLKCDEPILSNRSGDHRGKFKVASFRKKYELRAPVAGTCYQAEWDDYVPKLYEQLSGK	100
Procarboxypeptidase A2 (1AYE): human protein (protein, UniProt P48052 19-419, looked up, pro-form) pro-form: LETFVGDQVLEIVPSNEEQIKNLLQLEAQEHLQLDFWKSPTTPGETAHVRVPFVNVQAVKVFLESQGIAYSIMIEDVQVLLDKENEEMLFNRRRERSGNFNFGAYHTLEEISQEMDNLVAEHPGLVSKVNIGSSFENRPMNVLKFSTGGDKPAIWLDAGIHAREWVTQATALWTANKIVSDYGKDPSITSILDALDIFLLPVTNPDGYVFSQTKNRMWRKTRSKVSGSLCVGVDPNRNWDAGFGGPGASSNPCSDSYHGPSANSEVEVKSIVDFIKSHGKVKAFITLHSYSQLLMFPYGYKCTKLDDFDELSEVAQKAAQSLRSLHGTKYKVGPICSVIYQASGGSIDWSYDYGIKYSFAFELRDTGRYGFLLPARQILPTAEETWLGLKAIMEHVRDHPY	23
Quinone reductase type 2 (1QR2): human protein (protein, UniProt P16083 1-231, looked up) Ribosyldihydronicotinamide …: MAGKKVLIVYAHQEPKSFNGSLKNVAVDELSRQGCTVTVSDLYAMNLEPRATDKDITGTLSNPEVFNYGVETHEAYKQRSLASDITDEQKKVREADLVIFQFPLYWFSVPAILKGWMDRVLCQGFAFDIPGFYDSGLLQGKLALLSVTTGGTAEMYTKTGVNGDSRYFLWPLQHGTLHFCGFKVLAPQISFAPEIASEEERKGMVAAWSQRLQTIWKEEPIPCTAHWHFGQ	50
Ribonuclease inhibitor (1A4Y): human protein (protein, UniProt P13489 2-461, looked up) Ribonuclease inhibitor: SLDIQSLDIQCEELSDARWAELLPLLQQCQVVRLDDCGLTEARCKDISSALRVNPALAELNLRSNELGDVGVHCVLQGLQTPSCKIQKLSLQNCCLTGAGCGVLSSTLRTLPTLQELHLSDNLLGDAGLQLLCEGLLDPQCRLEKLQLEYCSLSAASCEPLASVLRAKPDFKELTVSNNDINEAGVRVLCQGLKDSPCQLEALKLESCGVTSDNCRDLCGIVASKASLRELALGSNKLGDVGMAELCPGLLHPSSRLRTLWIWECGITAKGCGDLCRVLRAKESLKELSLAGNELGDEGARLLCETLLEPGCQLESLWVKSCSFTAACCSHFSSVLAQNRFLLELQISNNRLEDAGVRELCQGLGQPGSVLRVLWLADCDVSDSSCSSLAATLLANHSLRELDLSNNCLGDAGILQLVESVRQPGCLLEQLVLYDIYWSEEMEDRLQALEKDKPSLRVIS	68
O6-alkylguanine-DNA alkyltransferase (1EH6): human protein (protein, UniProt P16455 1-207, looked up) Methylated-DNA--protein-cystei …: MDKDCEMKRTTLDSPLGKLELSGCEQGLHEIKLLGKGTSAADAVEVPAPAAVLGGPEPLMQCTAWLNAYFHQPEAIEEFPVPALHHPVFQQESFTRQVLWKLLKVVKFGEVISYQQLAALAGNPKAARAVGGAMRGNPVPILIPCHRVVCSSGAVGNYSGGLAVKEWLLAHEGHRLGKPGLGGSSGLAGAWLKGAGATSGSPPAGRN	46
Eosinophil cationic protein (1QMT): human protein (protein, UniProt P12724 28-160, looked up) Eosinophil cationic protein: RPPQFTRAQWFAIQHISLNPPRCTIAMRAINNYRWRCKNQNTFLRTTFANVVNVCGNQSIRCPHNRTLNNCHRSRFRVPLLHCDLINPGAQNISNCTYADRPGRRFYVVACDNRDPRDSPRYPVVPVHLDTTI	65
Phenylalanine hydroxylase (1DMW): human protein (protein, UniProt P00439 1-452, looked up) Phenylalanine-4-hydroxylase: MSTAVLENPGLGRKLSDFGQETSYIEDNCNQNGAISLIFSLKEEVGALAKVLRLFEENDVNLTHIESRPSRLKKDEYEFFTHLDKRSLPALTNIIKILRHDIGATVHELSRDKKKDTVPWFPRTIQELDRFANQILSYGAELDADHPGFKDPVYRARRKQFADIAYNYRHGQPIPRVEYMEEEKKTWGTVFKTLKSLYKTHACYEYNHIFPLLEKYCGFHEDNIPQLEDVSQFLQTCTGFRLRPVAGLLSSRDFLGGLAFRVFHCTQYIRHGSKPMYTPEPDICHELLGHVPLFSDRSFAQFSQEIGLASLGAPDEYIEKLATIYWFTVEFGLCKQGDSIKAYGAGLLSSFGELQYCLSEKPKLLPLELEKTAIQNYTVTEFQPLYYVAESFNDAKEKVRNFAATIPRPFSVRYDPYTQRIEVLDNTQQLKILADSINSEIGILCSALQKIK	33
Ribonuclease 4 (1RNF): human protein (protein, UniProt P34096 29-147, looked up) Ribonuclease 4: QDGMYQRFLRQHVHPEETGGSDRYCNLMMQRRKMTLYHCKRFNTFIHEDIWNIRSICSTTNIQCKNGKMNCHEGVVKVTDCRDTGSSRAPNCRYRAIASTRRVVIACEGNPQVPVHFDG	20

same assay, conditions: buffer, pH 7.4

Molecule	T1/2 (half-life, deamidation) [days]
Glucosamine-6-phosphate deaminase isomerase (1D9T): human protein (protein, UniProt P46926 1-289, looked up) Glucosamine-6-phosphate …: MKLIILEHYSQASEWAAKYIRNRIIQFNPGPEKYFTLGLPTGSTPLGCYKKLIEYYKNGDLSFKYVKTFNMDEYVGLPRDHPESYHSFMWNNFFKHIDIHPENTHILDGNAVDLQAECDAFEEKIKAAGGIELFVGGIGPDGHIAFNEPGSSLVSRTRVKTLAMDTILANARFFDGELTKVPTMALTVGVGTVMDAREVMILITGAHKAFALYKAIEEGVNHMWTVSAFQQHPRTVFVCDEDATLELKVKTVKYFKGLMLVHNKLVDPLYSIKEKETEKSQSSKKPYSD	320

same assay, conditions: pH 7.4

Molecule	T1/10 (time to 10% degradation by deamidation) [days]
Glucosamine-6-phosphate deaminase isomerase (1D9T): human protein (protein, UniProt P46926 1-289, looked up) Glucosamine-6-phosphate …: MKLIILEHYSQASEWAAKYIRNRIIQFNPGPEKYFTLGLPTGSTPLGCYKKLIEYYKNGDLSFKYVKTFNMDEYVGLPRDHPESYHSFMWNNFFKHIDIHPENTHILDGNAVDLQAECDAFEEKIKAAGGIELFVGGIGPDGHIAFNEPGSSLVSRTRVKTLAMDTILANARFFDGELTKVPTMALTVGVGTVMDAREVMILITGAHKAFALYKAIEEGVNHMWTVSAFQQHPRTVFVCDEDATLELKVKTVKYFKGLMLVHNKLVDPLYSIKEKETEKSQSSKKPYSD	49

same assay, conditions: pH 7.4, 37° C., […] Tris.HCl buffer

Molecule	time to lose 10% potency
Uroporphyrinogen decarboxylase (1URO): human protein (protein, UniProt P06132 1-367, looked up) Uroporphyrinogen decarboxylase: MEANGLGPQGFPELKNDTFLRAAWGEETDYTPVWCMRQAGRYLPEFRETRAAQDFFSTCRSPEACCELTLQPLRRFPLDAAIIFSDILVVPQALGMEVTMVPGKGPSFPEPLREEQDLERLRDPEVVASELGYVFQAITLTRQRLAGRVPLIGFAGAPWTLMTYMVEGGGSSTMAQAKRWLYQRPQASHQLLRILTDALVPYLVGQVVAGAQALQLFESHAGHLGPQLFNKFALPYIRDVAKQVKARLREAGLAPVPMIIFAKDGHFALEELAQAGYEVVGLDWTVAPKKARECVGKTVTLQGNLDPCALYASEEEIGQLVKQMLDDFGPHRYIANLGHGLYPDMDPEHVGAFVDAVHKHSRLLRQN	about 3.6 hours
